T1: MiniFLASH (human, UniProt Q9UKL3 1-138; Q9UKL3 1931-1982)
T1 sequence (looked up): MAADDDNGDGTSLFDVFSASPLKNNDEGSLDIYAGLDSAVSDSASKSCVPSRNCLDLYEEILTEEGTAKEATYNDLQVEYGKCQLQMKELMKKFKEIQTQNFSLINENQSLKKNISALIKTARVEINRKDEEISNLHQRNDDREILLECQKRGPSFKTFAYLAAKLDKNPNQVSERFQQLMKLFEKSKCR

B1: Lsm 169N (MBP fusion) (domain or fragment, human, UniProt P83369 1-169, looked up)
chain: MEERERGARSAGAGSPARPPSPRLDVSSDSFDPLLALYAPRLPPIPYPNAPCFNNVAEYESFLRTGVRGGGRGRGRARGAAAGSGVPAAPGPSGRTRRRPDAPAPDPERIQRLRRLMVAKEEGDGAAGAGRRGPGRSRKAPRNVLTRMPLHEGSPLGELHRCIREGVKV
B2: FLASH 138N (domain or fragment, human, UniProt Q9UKL3 29-138, looked up)
chain: SLDIYAGLDSAVSDSASKSCVPSRNCLDLYEEILTEEGTAKEATYNDLQVEYGKAQLQMKELMKKFKEIQTQNFSLINENQSLKKNISALIKTARVEINRKDEEISNLHQ
B3: FLASH 159N (domain or fragment, human, UniProt Q9UKL3 1-159, looked up)
chain: MAADDDNGDGTSLFDVFSASPLKNNDEGSLDIYAGLDSAVSDSASKSCVPSRNCLDLYEEILTEEGTAKEATYNDLQVEYGKAQLQMKELMKKFKEIQTQNFSLINENQSLKKNISALIKTARVEINRKDEEISNLHQRLSEFPHFRNNHKTARTFDTV

Key:
MiniFLASH = molecular target: T1, MiniFLASH; assay: HDX-MS
Lsm 169N (MBP fusion) = molecular target: B1; assay: HDX-MS

binding result (MiniFLASH) | binding result (Lsm 169N (MBP fusion)) | Binder
binds | – | B1
– | binds | B2
– | binds | B3

Reference: article PMC4847949 (Journal of molecular biology, 2016)
